This passage reports Kd results from US20250188189A1 (published 2025).

Experiment [1] concerns the target T1, plasma-derived human activated protein C (APC) (UniProt P04070 43-461).
T1 chain: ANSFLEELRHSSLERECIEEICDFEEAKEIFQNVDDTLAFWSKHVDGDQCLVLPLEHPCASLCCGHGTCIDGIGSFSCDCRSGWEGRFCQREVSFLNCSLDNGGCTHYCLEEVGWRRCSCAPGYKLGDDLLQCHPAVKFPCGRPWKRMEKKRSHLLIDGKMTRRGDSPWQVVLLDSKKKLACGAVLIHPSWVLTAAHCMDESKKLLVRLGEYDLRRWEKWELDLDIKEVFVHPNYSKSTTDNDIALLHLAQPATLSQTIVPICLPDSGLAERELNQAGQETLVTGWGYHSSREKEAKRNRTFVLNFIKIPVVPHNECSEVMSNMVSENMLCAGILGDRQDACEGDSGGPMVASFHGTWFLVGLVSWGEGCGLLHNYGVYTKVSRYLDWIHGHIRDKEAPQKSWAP
In words: SPR. Background: SPR reads the build-up and loss of mass on a sensor chip optically.

The target of experiment [2] is TPP-29862. Description: SPR; head prints nM; kd/ka gives M.
For experiment [3], the target named is T1, plasma-derived human activated protein …. In words: SPR.
Experiment [4] shares this target. Description: SPR.

The term Kd denotes the concentration at which binding is half-saturated.

Read-outs that look alike come from different tables or passages of the source.

B1: TPP-24777 (antibody, V domains shown)
VH: EVQLVESGGGLVQPGGSLRLSCAASGFTFSSYYLNWVRQAPGKGLEWVSYISSSSSTIYYADSVKGRFTISRDDSKNSLYLQMNSLKTEDTAVYYCAREGDYFDYWGQGTLVTVSS
Consider B1, for which the Kd in experiment [1] stood at 31.4 nM.

B2: hAPC (enzyme)
chain: ANSFLEELRHSSLERECIEEICDFEEAKEIFQNVDDTLAFWSKHVDGDQCLVLPLEHPCASLCCGHGTCIDGIGSFSCDCRSGWEGRFCQREVSFLNCSLDNGGCTHYCLEEVGWRRCSCAPGYKLGDDLLQCHPAVKFPCGRPWKRMEKKRSHLLIDGKMTRRGDSPWQVVLLDSKKKLACGAVLIHPSWVLTAAHCMDESKKLLVRLGEYDLRRWEKWELDLDIKEVFVHPNYSKSTTDNDIALLHLAQPATLSQTIVPICLPDSGLAERELNQAGQETLVTGWGYHSSREKEAKRNRTFVLNFIKIPVVPHNECSEVMSNMVSENMLCAGILGDRQDACEGDSGGPMVASFHGTWFLVGLVSWGEGCGLLHNYGVYTKVSRYLDWIHGHIRDKEAPQKSWAP
In the case of B2, the affinity in experiment [2], expressed as Kd, was 11 nM. That is a double-digit nanomolar value.

B3: TPP-24727 (antibody, V domains shown)
VH: EVQLVESGGGLVQPGGSLRLSCAASGFTFSNYYLNWVRQAPGKGLEWVGDIRLKSNNYEKHYAESVKGRFTISRDDSKNSLYLQMNSLKTEDTAVYYCAREGDYFDYWGQGTLVTVSS
VL: DIVLTQSPASLAVSPGQRATITCKASESVDSFGATFMHWYQQKPGQPPKLLIYLASNLESGVPARFSGSGSGTDFTLTINPVEADDTANYYCQQNNEDPYTFGQGTKLEIKR
As to B3, the figures for the dissociation constant Kd in experiment [3], in experiment [4] and in experiment [1] were 44.8 nM, 18.7 nM and 44.8 nM, respectively.
